The test addresses prostate specific membrane antigen (PSMA) on LNCaP cells (human) (UniProt Q04609).

Consider irrelevant IgG antibody, for which the tumor uptake of the 131I-labelled antibody in nude mice bearing LNCaP tumors, one day post injection (% injected dose/gram) (% injected dose/gram) is 4.41.

(Values after patent publication US7666414B2.)
